Here are results for two molecules from PMC6386680 (Proceedings of the National Academy of Sciences of the …, 2019).

The stoichiometry N is the number of molecules, sites or subunits per partner or assembly.

In one assay the target is Gal-3 CRD (trGal-3) (Homo sapiens, UniProt P17931). The experiment in a line: hydrogen-deuterium exchange mass spectrometry. Format: binding. To be noted: absence vs presence of lactose; canonical site.
Assay [1] concerns the target Gal-3–8S–Gal-1 (covalently connected heterodimer, Gal-3 CRD, 33-aa Gal-8 linker, Gal-1 CRD) (human). In words: SAXS.
For assay [2] the target is unchanged. The experiment in a line: SEC. A general note: Size exclusion chromatography separates by hydrodynamic size, large species first.

Sequence of Gal-3 CRD (trGal-3) (P17931 108-250 limits assumed): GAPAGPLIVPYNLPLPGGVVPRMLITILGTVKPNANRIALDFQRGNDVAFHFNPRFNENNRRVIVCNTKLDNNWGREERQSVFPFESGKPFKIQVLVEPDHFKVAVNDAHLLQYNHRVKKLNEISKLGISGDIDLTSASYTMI

For the molecule `OC[C@H]1O[C@@H](O[C@H]2[C@H](O)[C@@H](O)C(O)O[C@@H]2CO)[C@H](O)[C@@H](O)[C@H]1O` (stereo partly drawn) [Lac], the “hydrogen-deuterium exchange mass spectrometry” value at Gal-3 CRD (trGal-3) is on record as “significantly decreased deuterium uptake was found in the region of the canonical binding site”.

Regarding “Gal-3–8S–Gal-1 (covalently connected heterodimer, Gal-3 CRD, 33-aa Gal-8 linker, Gal-1 CRD)”, the stoichiometry N in assay [1] and in assay [2] was 2 each time.
